Data on one molecule can be found in paper PMC4575918, “Regulation of p53 oligomerization by Ras superfamily protein RBEL1A” (Genes & Cancer, 2015).

The target in data set [1] is T1, purified recombinant full-length RBEL1A (UniProt Q3YEC7-1 1-729, purification (1): glycosylated (larger molecular mass); purification (2): unglycosylated or less glycosylated).
T1 construct: RBEL1A, Ras superfamily GTPase, full length; also called recombinant RBEL1A; RBEL1A (1); source: purified recombinant protein
T1 sequence (looked up): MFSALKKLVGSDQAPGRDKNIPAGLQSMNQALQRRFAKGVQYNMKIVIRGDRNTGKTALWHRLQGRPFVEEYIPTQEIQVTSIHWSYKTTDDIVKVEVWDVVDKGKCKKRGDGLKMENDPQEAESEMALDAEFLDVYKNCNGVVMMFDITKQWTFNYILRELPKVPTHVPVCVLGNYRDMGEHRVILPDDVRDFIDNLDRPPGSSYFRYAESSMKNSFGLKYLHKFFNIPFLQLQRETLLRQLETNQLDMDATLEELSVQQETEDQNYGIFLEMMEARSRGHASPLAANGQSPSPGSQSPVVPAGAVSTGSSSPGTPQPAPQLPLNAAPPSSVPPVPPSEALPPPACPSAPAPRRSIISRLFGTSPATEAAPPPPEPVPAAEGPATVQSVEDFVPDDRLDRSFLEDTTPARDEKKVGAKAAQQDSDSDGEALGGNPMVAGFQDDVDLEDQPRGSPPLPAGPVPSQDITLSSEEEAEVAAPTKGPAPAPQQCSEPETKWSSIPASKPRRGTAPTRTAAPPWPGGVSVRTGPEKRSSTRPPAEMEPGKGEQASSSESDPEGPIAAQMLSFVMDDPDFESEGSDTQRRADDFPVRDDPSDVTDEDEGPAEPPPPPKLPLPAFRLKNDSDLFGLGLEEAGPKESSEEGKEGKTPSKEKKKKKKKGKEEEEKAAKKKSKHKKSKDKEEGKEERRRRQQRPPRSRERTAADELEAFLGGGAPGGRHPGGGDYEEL
Description: cross-linking; purified p53 (315-360) incubated with purified RBEL1A or BSA (1:1 or 2:1 molar ratio) 1 hour at 4 C, then glutaraldehyde 5 minutes at 4 C; SDS-PAGE, anti-p53 (FL-393) blot. Conditions: both partners purified.

Data set [2] concerns the molecule itself. The data set is described as above.

B1: purified recombinant p53 tetramerization domain (residues 315-360) (domain or fragment, UniProt P04637 315-360, looked up)
chain: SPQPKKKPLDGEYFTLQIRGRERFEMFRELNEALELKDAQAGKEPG
notes: p53 tumor suppressor, residues 315-360 (tetramerization domain); also called p53-Oligo-D; recombinant p53 (315-360); source: purified recombinant polypeptide
On to B1, for which the binding result in data set [1] is “binds”. Further, the “stoichiometry N” value in data set [2] amounted to 4.
